Results on four substances are retold here after patent publication US20190300576A1.

For assay [1], the target named is SUMO-C-CA (HIV-1). The assay can be described thus: BLI, peptide on streptavidin sensors, global fit.
Assay [2] concerns the target SUMO-C-CA (HIV-1). The assay can be described thus: BLI, biotinylated peptide immobilized on streptavidin sensors, SUMO-C-CA in solution. (In general: In BLI a coated tip is dipped into the sample, and binding shifts an interference pattern.)
Assay [3] concerns the target SUMO-C-CA (HIV-1). The assay can be described thus: HPSEC affinity selection, 50*7.8mm BIO-SEC-3 column, peptide quantified by LC-MS in the protein fraction. For orientation: In gel filtration, larger molecules generally elute earlier.
Assay [4] has as its target Trypsin from bovine pancreas (bovine) (UniProt P00760). The assay is described as follows: Trypsin inhibition assay.
For assay [5], the target named is SUMO-C-CA (HIV-1). The assay can be described thus: BLI, C-terminally biotinylated peptide immobilized.

Sequence of Trypsin from bovine pancreas (bovine) (P00760 24-246): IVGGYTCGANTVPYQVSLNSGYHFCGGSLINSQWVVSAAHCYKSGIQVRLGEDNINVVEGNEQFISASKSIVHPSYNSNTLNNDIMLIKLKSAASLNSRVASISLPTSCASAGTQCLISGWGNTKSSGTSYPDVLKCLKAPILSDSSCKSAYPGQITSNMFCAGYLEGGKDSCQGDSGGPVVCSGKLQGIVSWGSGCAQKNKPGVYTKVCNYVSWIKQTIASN

The term Kd denotes the constant that tells how readily two partners part at equilibrium. The low end stands for a tighter complex, the high end for a looser complex. Regarding peptide NYAD (37a-M), the Kd in assay [1] worked out at 5000 nM; in assay [2] it was 5800 nM.

For CAI (37) (peptide), the Selection yield (%) in assay [3] was found to be 0.5%.

For “EETI-II-diol (59) (from UniProt P12071 1-28) (peptide)”, the Kd in assay [4] was 0.93 nM.

As for peptide 37a (biotinylated CAI), the values for the Kd in assay [1], in assay [5] and in assay [2] were 2200 nM, 2300 nM and 2300 nM, respectively.
